Article PMC4505582 (The Journal of Biological Chemistry, 2015)

T1: F-ATPase subunit b (bovine, UniProt P13619 43-256)
T1 construct: ATP synthase subunit b, mitochondrial, bovine; endogenous subunit of the peripheral stalk of the purified F-ATPase; source: purified from bovine mitochondrial membranes as part of the F-ATPase complex
T1 sequence (looked up): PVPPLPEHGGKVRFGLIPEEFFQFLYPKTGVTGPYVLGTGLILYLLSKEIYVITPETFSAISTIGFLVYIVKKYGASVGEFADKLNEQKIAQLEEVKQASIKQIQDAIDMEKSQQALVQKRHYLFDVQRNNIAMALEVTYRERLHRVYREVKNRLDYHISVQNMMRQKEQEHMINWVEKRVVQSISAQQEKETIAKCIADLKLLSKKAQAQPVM

T2: F-ATPase subunit g (bovine, UniProt Q28852 1-103)
T2 construct: ATP synthase subunit g, mitochondrial, bovine; endogenous supernumerary membrane subunit of the purified F-ATPase; source: purified from bovine mitochondrial membranes as part of the F-ATPase complex
T2 sequence (looked up): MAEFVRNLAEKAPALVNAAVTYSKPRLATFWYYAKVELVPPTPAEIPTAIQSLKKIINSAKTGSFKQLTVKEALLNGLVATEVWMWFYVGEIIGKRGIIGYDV

B1: F-ATPase subunit e (natural protein, bovine, UniProt Q00361 1-71, looked up)
chain: MVPPVQVSPLIKLGRYSALFLGMAYGAKRYNYLKPRAEEERRLAAEEKKKRDEQKRIERELAEAQEDTILK
notes: ATP synthase subunit e, mitochondrial, bovine; endogenous supernumerary membrane subunit of the purified F-ATPase; source: purified from bovine mitochondrial membranes as part of the F-ATPase complex
B2: F-ATPase subunit F6 (natural protein, bovine, UniProt P02721 33-108, looked up)
chain: NKELDPVQKLFVDKIREYRTKRQTSGGPVDAGPEYQQDLDRELFKLKQMYGKADMNTFPNFTFEDPKFEVVEKPQS
notes: ATP synthase coupling factor 6, mitochondrial, bovine; endogenous subunit of the peripheral stalk of the purified F-ATPase; printed length 76 amino acids; source: purified from bovine mitochondrial membranes as part of the F-ATPase complex
B3: F-ATPase subunit ATP8 (natural protein, bovine, UniProt P03929 1-66, looked up)
chain: MPQLDTSTWLTMILSMFLTLFIIFQLKVSKHNFYHNPELTPTKMLKQNTPWETKWTKIYLPLLLPL
notes: ATP synthase protein 8 (A6L), encoded in mitochondrial DNA, bovine; endogenous membrane subunit of the purified F-ATPase; C terminus at residue 66 as printed; also called A6L; source: purified from bovine mitochondrial membranes as part of the F-ATPase complex
B4: F-ATPase subunit DAPIT (diabetes-associated protein in insulin-sensitive tissues) (natural protein, bovine, UniProt Q3ZBI7 1-58, looked up)
chain: MAGPEADAQFHFTGIKKYFNSYTLTGRMNCVLATYGSIALIVLYFKLRSKKTPAVKAT
notes: DAPIT (diabetes-associated protein in insulin-sensitive tissues), bovine; endogenous supernumerary membrane subunit of the purified F-ATPase; source: purified from bovine mitochondrial membranes as part of the F-ATPase complex
B5: F-ATPase subunit oscp (natural protein, bovine, UniProt P13621 24-213, looked up)
chain: FAKLVRPPVQIYGIEGRYATALYSAASKQNKLEQVEKELLRVGQILKEPKMAASLLNPYVKRSVKVKSLSDMTAKEKFSPLTSNLINLLAENGRLTNTPAVISAFSTMMSVHRGEVPCTVTTASALDEATLTELKTVLKSFLSKGQVLKLEVKIDPSIMGGMIVRIGEKYVDMSAKTKIQKLSRAMREIL
notes: ATP synthase subunit O (oligomycin sensitivity conferral protein), mitochondrial, bovine; endogenous subunit of the peripheral stalk of the purified F-ATPase; source: purified from bovine mitochondrial membranes as part of the F-ATPase complex
B6: F-ATPase subunit d (natural protein)
chain: not shown
notes: ATP synthase subunit d, mitochondrial, bovine; endogenous subunit of the peripheral stalk of the purified F-ATPase; source: purified from bovine mitochondrial membranes as part of the F-ATPase complex
B7: F-ATPase subunit f (natural protein, bovine, UniProt Q28851 1-88, looked up)
chain: MASVVPLKEKKLLEVKLGELPSWILMRDFTPSGIAGAFQRGYYRYYNKYVNVKKGSIAGLSMVLAAYVFLNYCRSYKELKHERLRKYH
notes: ATP synthase subunit f, mitochondrial, bovine; endogenous supernumerary membrane subunit of the purified F-ATPase; source: purified from bovine mitochondrial membranes as part of the F-ATPase complex

Columns and labels:
Settings in all cases: both partners purified
F-ATPase subunit f = target: B7; assay: cross-linking; purified monomeric bovine F-ATPase (2 μM, 1.16 mg/ml) in detergent and phospholipids reacted with 2 mM DSS(d0/d12), pH 8.0, 2 h; tryptic digest, cation exchange fractionation, linked lysines identified by mass spectrometry
F-ATPase subunit d [1] = target: B6; assay: as above
F-ATPase subunit b [2] = target: T1, F-ATPase subunit b; assay: as above
F-ATPase subunit F6 = target: B2; assay: as above
F-ATPase subunit d [3] = target: B6; assay: as above; remark: listed apart in the source
F-ATPase subunit b [4] = target: T1, F-ATPase subunit b; assay: as above; remark: listed apart in the source
[5] = target: T3, F-ATPase subunit 6.8PL (6.8-kDa proteolipid) (bovine, UniProt P14790 1-60); assay: as above
T3 construct: 6.8 kDa mitochondrial proteolipid, bovine; endogenous supernumerary membrane subunit of the purified F-ATPase; source: purified from bovine mitochondrial membranes as part of the F-ATPase complex

F-ATPase α-subunit = target: T4, F-ATPase α-subunit (bovine, UniProt P19483 44-553); assay: as above
T4 construct: ATP synthase subunit alpha, mitochondrial, bovine; endogenous subunit of the F1 domain of the purified F-ATPase (three copies in the enzyme); also called subunit α; source: purified from bovine mitochondrial membranes as part of the F-ATPase complex

F-ATPase subunit b [6] = target: T1, F-ATPase subunit b; assay: cross-linking; purified monomeric bovine F-ATPase reacted with BS^3(d0/d12) at the same concentration and under the same conditions as DSS; tryptic digest, linked lysines identified by mass spectrometry
F-ATPase subunit g = target: T2, F-ATPase subunit g; assay: as above

T4 sequence (P19483 44-553): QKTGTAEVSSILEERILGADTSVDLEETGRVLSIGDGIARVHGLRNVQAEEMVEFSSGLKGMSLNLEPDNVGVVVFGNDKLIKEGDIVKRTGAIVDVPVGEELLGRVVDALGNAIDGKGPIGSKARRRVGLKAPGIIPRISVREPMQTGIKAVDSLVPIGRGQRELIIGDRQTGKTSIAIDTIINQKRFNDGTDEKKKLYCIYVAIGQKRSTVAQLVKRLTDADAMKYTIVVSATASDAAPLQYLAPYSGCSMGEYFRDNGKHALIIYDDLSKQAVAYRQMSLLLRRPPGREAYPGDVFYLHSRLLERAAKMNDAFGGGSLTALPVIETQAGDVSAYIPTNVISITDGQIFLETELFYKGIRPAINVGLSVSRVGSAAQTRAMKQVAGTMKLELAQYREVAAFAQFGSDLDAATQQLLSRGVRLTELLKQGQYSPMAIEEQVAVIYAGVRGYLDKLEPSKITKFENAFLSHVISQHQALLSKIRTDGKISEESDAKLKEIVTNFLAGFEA

## B1
F-ATPase subunit f
  binding result: binds

## B2
F-ATPase subunit d [1]
  binding result: binds
F-ATPase subunit b [2]
  binding result: binds

## B3
F-ATPase subunit F6
  binding result: binds
F-ATPase subunit d [3]
  binding result: binds
F-ATPase subunit b [4]
  binding result: binds

## B4
[5]
  binding result: binds

## B5
F-ATPase α-subunit
  binding result: binds

## B6
F-ATPase subunit b [6]
  binding result: binds

## B7
F-ATPase subunit g
  binding result: binds
